Reference: PMC3166620

What was measured:
[1] = molecular target: Biotinylated Ub-CHIP (monoubiquitinated CHIP) (UniProt P0CG48); assay: BLI
Biotinylated CHIP = Biotinylated CHIP (UniProt Q9UNE7); assay: BLI
UniProt Q9UNE7, sequence (Q9UNE7 whole entry): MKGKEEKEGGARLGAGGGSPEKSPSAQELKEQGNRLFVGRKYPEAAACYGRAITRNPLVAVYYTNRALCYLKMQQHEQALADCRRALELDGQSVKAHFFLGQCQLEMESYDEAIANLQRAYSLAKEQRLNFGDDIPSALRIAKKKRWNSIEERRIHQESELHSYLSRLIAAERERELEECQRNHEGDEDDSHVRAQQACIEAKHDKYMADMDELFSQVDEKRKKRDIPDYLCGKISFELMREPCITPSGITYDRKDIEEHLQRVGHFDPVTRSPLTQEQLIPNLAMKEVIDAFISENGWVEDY

Kd [1] [nM]	Kd (Biotinylated CHIP) [nM]	Substance
120	2200	ataxin-3, normal (Q22), recombinant (from UniProt P54252 1-361) (enzyme)
750	390	ataxin-3, polyglutamine-expanded (Q80), recombinant (from UniProt P54252 1-361) (enzyme)
